In US5844093, “Anti-EGFR single-chain Fvs and anti-EGFR antibodies” (Merck Patent Gesellschaft mit Beschrankter Haftung, dated 1998):

Columns and labels:
[1] = target: EGFR on EGFR-bearing tumor cells (human, UniProt P00533); experiment: cell ELISA on A431 and MDA MB 468 cells, bacterial supernatants
Procedure: The scFvs were tested by ELISA for binding to three tumor cell lines. […] Cell line SK-MEL-23 is a ganglioside-bearing melanoma cell line and was included as a negative control.
Cells were grown to confluency in poly-D-lysine-treated 96 well tissue culture trays (Nunc). Cells were washed with DMEM and blocked at 37° C. for 2 h with PBS containing 2.5% BSA. After aspiration, supernatants were added to each well together with an equal volume of 2xYT media containing 4% milk powder and incubated at 40C for 1 h. Bound scFvs were detected as described above.

purified EGFR = purified EGFR (human, UniProt P00533); experiment: ELISA, purified EGFR, bacterial supernatants
Procedure: Binding of scFvs to EGFR. The concentrations of scFvs in bacterial supernatants were estimated and the scFvs tested by ELISA for binding to purified EGFR.
Antigen-binding ELISAs were carried out with EGFR-coated plates (2.5 µg/ml). Supernatants containing scFvs were diluted in PBSM and added to the plates. Bound scFvs were detected using 9E10 antibody as described above. Supernatants were also tested for binding to a panel of unrelated proteins and plastic. ELISA plates were coated overnight at 100 µg/ml with ovalbumin, hen egg lysozyme, cytochrome c, glyceraldehyde 3-phosphate dehydrogenase, murine albumin (CBA strain), and BSA. Undiluted supernatants containing 2% milk powder were added in duplicate to the coated plates and bound scFvs detected as described above.

[2] = target: murine albumin (CBA strain) (murine, UniProt P07724); experiment: ELISA, bacterial supernatants
Procedure: (§1) The scFvs were tested by ELISA for binding to plastic and to a panel of unrelated proteins (ovalbumin, hen egg lysozyme, cytochrome c, glyceraldehyde 3-phosphate dehydrogenase, CBA albumin, and BSA).
(§2) Supernatants containing scFvs were diluted in PBSM and added to the plates. Bound scFvs were detected using 9E10 antibody as described above. Supernatants were also tested for binding to a panel of unrelated proteins and plastic. ELISA plates were coated overnight at 100 µg/ml with ovalbumin, hen egg lysozyme, cytochrome c, glyceraldehyde 3-phosphate dehydrogenase, murine albumin (CBA strain), and BSA. Undiluted supernatants containing 2% milk powder were added in duplicate to the coated plates and bound scFvs detected as described above.

BSA = BSA (Bos taurus (Bovine), UniProt P02769); experiment: ELISA, bacterial supernatants
Procedure: as §1, §2

hen egg lysozyme = hen egg lysozyme (hen, UniProt P00698); experiment: ELISA, bacterial supernatants
Procedure: as §1, §2

ovalbumin = ovalbumin (Gallus gallus (Chicken), UniProt P01012); experiment: ELISA, bacterial supernatants
Procedure: as §1, §2

Row | binding result [1] | binding result (purified EGFR) | binding result [2] | binding result (BSA) | binding result (hen egg lysozyme) | binding result (ovalbumin) | Binder
1 |  |  | no binding | no binding | no binding | no binding | scFv No. S4 2D (scFv, V domains shown) VH: EVKLQQSGPELVKPGASVKMSCKASGYAFISFVMHWVKQKPGQGLEWIGFINPYNDGTKYNEKFKDKATLTSDKSSSTAYMELSSLTSEDSAVYYCASGDYDRAMDYWGQGTTVTVSS VL: DIELTQSPTTMAASPGEKITITCSASSSISSNYLHWYQQKPGFSPKLLIYRTSNLASGVPARFSGSGSGTSYSLTIGTMEAEDVATYYCQQGSSIPRTFGGGTKLEIKR
2 |  |  | no binding | no binding | no binding | no binding | scFv No. L2 11C (scFv, V domains shown) VH: QVQLQESGPELVRPGASVKMSCKASGYTFTTYWIHWMKQRPGQGLQWIGMIDPSNSETRLNQNFRDKATLSVDKSSNKAYMQLSSLTSEDSAIYYCARWDYGSGHFDYWGQGTTVTVSS VL: DIELTQSPASLAASVGETVTITCRASENIYYSLAWYQQKQGKSPQLLIYSASALEDGVPSRFSGSGSGTQYSLKINNMQPEDTATYFCKQTYDVPWTFGGGTKLEIKR

More lines, now with the values behind:

Row | Binder | binding result [1] | binding result (purified EGFR) | binding result [2] | binding result (BSA) | binding result (hen egg lysozyme) | binding result (ovalbumin)
3 | scFv No. L2 12B (scFv, V domains shown) VH: QVQLQESGPELVKPGALVKISCKASGYTFTSYWMHWVKQRPGQGLEWIGEIDPSDSYTNYNQKFKGKATLTVDKSSNTAYMQLSSLTSEDSAVYYCARSDYGSSHFDYWGQGTTVTVSS VL: not shown | binds | binds | no binding | no binding | no binding | no binding
4 | scFv No. L3 11D (scFv, V domains shown) VH: EVQLQQSGAELVKPGASVKLSCKASGYTFTSYWMHWVKQRPGQGLEWIGEIDPSDSYTNYNQKFKGKATLTVDKSSSTAYMQLSSLTSEDSAVYYCARSDYGSSHFDYWGQGTTVTVSS VL: not shown |  |  | no binding | no binding | no binding | no binding
